Source: PMC3828302

Columns and labels:
Experiment in all cases: EMSA
Conditions in all cases: 10 mM Tris-HCl pH 7.4, 50 mM KCl, 1 mM DTT, 100 mg/mL BSA (so in the source), 5 ng/mL poly[dI-dC], 200 uM c-di-GMP, 30 C 20 min; 5% native PAGE with 50 uM c-di-GMP …
[1] = biological target: T1, MrkH-8xHis (Klebsiella pneumoniae AJ218) (UniProt G3FT00)
T1 sequence: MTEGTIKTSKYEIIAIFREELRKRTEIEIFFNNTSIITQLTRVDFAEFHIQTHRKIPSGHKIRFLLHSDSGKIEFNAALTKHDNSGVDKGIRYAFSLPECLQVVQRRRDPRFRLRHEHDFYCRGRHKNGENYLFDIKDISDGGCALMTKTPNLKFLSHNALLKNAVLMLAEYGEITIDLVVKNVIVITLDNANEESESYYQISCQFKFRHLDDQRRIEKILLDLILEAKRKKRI

[2] = biological target: T2, MrkH 217AS218-8xHis internal_change (Klebsiella pneumoniae AJ218) (UniProt G3FT00)
T2 sequence: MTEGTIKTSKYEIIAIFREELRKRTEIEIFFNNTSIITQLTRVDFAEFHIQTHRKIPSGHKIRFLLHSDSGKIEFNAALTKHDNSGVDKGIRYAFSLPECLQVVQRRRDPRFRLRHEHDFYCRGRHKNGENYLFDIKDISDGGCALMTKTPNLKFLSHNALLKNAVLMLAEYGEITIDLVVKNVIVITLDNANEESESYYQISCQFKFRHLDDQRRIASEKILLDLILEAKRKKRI

[3] = biological target: T3, MrkH 39AS40-8xHis internal_change (Klebsiella pneumoniae AJ218) (UniProt G3FT00)
T3 sequence: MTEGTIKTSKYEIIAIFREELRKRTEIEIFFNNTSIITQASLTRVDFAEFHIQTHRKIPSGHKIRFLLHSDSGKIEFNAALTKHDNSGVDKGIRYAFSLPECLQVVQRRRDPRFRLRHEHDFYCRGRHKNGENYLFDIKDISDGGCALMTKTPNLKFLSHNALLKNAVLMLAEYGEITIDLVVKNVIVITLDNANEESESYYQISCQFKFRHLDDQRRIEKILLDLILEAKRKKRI

[4] = biological target: T4, MrkH 15AS16-8xHis internal_change (Klebsiella pneumoniae AJ218) (UniProt G3FT00)
T4 sequence: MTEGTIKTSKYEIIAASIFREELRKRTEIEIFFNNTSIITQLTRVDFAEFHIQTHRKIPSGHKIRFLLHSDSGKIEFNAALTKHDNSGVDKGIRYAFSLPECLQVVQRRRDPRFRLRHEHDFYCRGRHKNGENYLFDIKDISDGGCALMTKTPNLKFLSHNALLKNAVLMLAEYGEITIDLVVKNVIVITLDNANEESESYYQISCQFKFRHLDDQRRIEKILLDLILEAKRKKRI

[5] = biological target: T5, MrkH 202AS203-8xHis internal_change (Klebsiella pneumoniae AJ218) (UniProt G3FT00)
T5 sequence: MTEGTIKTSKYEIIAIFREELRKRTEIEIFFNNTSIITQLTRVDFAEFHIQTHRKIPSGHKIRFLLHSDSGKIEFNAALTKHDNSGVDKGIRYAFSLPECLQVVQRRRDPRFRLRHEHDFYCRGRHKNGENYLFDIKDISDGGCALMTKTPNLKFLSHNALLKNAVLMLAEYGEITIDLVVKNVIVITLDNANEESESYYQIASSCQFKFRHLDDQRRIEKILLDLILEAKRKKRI

GCTGTTGCGGTCACTTTCTCTCGCTCTGGCGTTAGGCTTGCTGCGCTGTAAACAACCACCCTCGCGTTTTCATCTAAGAATGACTGTTTATTAATAGTCGATGGTTATCTGTTATATAACTTAATGAAACGTGAACAAATGTATATTTGTCGGCGAATAAATAGCATTCTTTGACGCCGATAGCACCAGCGAACTTATATTTTTAGGTTCGTTACCTGACGCCTTAAATATTGCGGCTCCCGGTCAGTCGAAGATTCTATTAGCAGTGGC (double strand) [mrkA fragment, MrkH box mut-6]
binding [1]: binds more weakly

GCTGTTGCGGTCACTTTCTCTCGCTCTGGCGTTAGGCTTGCTGCGCTGTAAACAACCACCCTCGCGTTTTCATCTATCAATGACTGTTGCAGCATAGTCGATGGTTATCTGTTATATAACTTAATGAAACGTGAACAAATGTATATTTGTCGGCGAATAAATAGCATTCTTTGACGCCGATAGCACCAGCGAACTTATATTTTTAGGTTCGTTACCTGACGCCTTAAATATTGCGGCTCCCGGTCAGTCGAAGATTCTATTAGCAGTGGC (double strand) [mrkA fragment, UP mutation]
binding [1]: binds

GCTGTTGCGGTCACTTTCTCTCGCTCTGGCGTTAGGCTTGCTGCGCTGTAAACAACCACCCTCGCGTTTTCATCTATCAATGACTGTTTATTAATAGTCGATGGTTATCTGTTATATAACTTAATGAAACGTGAACAAATGTATATTTGTCGGCGAATAAATAGCATTCTTTGACGCCGATAGCACCAGCGAACTTATATTTTTAGGTTCGTTACCTGACGCCTTAAATATTGCGGCTCCCGGTCAGTCGAAGATTCTATTAGCAGTGGC (double strand) [mrkA promoter fragment, wild type]
binding [2]: no binding | binding [1]: binds | binding [3]: binds | binding [4]: binds | binding [5]: no binding

GCTGTTGCGGTCACTTTCTCTCGCTCTGGCGTTAGGCTTGCTGCGCTGTAAACAACCACCCTCGCGTTTTCATCTCCCAATGACTGTTTATTAATAGTCGATGGTTATCTGTTATATAACTTAATGAAACGTGAACAAATGTATATTTGTCGGCGAATAAATAGCATTCTTTGACGCCGATAGCACCAGCGAACTTATATTTTTAGGTTCGTTACCTGACGCCTTAAATATTGCGGCTCCCGGTCAGTCGAAGATTCTATTAGCAGTGGC (double strand) [mrkA fragment, MrkH box mut-5]
binding [1]: binds more weakly
